Where a chain is given by its changes, count along the chain named. Names and notes keep the numbering of the source.
T1: Ku L251A (Mycobacterium tuberculosis, UniProt P9WKD9 1-273, L251A)
T1 sequence: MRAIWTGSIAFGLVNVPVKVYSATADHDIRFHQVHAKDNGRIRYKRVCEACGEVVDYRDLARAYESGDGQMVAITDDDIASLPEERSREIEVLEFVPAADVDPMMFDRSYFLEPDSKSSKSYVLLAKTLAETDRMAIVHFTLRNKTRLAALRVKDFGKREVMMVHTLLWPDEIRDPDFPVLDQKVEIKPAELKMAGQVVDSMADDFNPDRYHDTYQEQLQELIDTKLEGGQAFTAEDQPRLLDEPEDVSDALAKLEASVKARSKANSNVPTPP

T2: Ku D250A (Mycobacterium tuberculosis, UniProt P9WKD9 1-273, D250A)
T2 sequence: T1 sequence with D250A, A251L

T3: Ku R262A (Mycobacterium tuberculosis, UniProt P9WKD9 1-273, R262A)
T3 sequence: T1 sequence with A251L, R262A

T4: Ku S258A (Mycobacterium tuberculosis, UniProt P9WKD9 1-273, S258A)
T4 sequence: T1 sequence with A251L, S258A

T5: Ku D247A (Mycobacterium tuberculosis, UniProt P9WKD9 1-273, D247A)
T5 sequence: T1 sequence with D247A, A251L

B1: Mycobacterium tuberculosis Ku L251A (natural protein)
chain: T1 sequence
B2: Mycobacterium tuberculosis Ku D250A (natural protein)
chain: T1 sequence with D250A, A251L
B3: Mycobacterium tuberculosis Ku D247A (natural protein)
chain: T1 sequence with D247A, A251L
notes: The theoretical MW of 33.7 kDa equals that of KuWT
B4: Mycobacterium tuberculosis Ku R262A (natural protein)
chain: T1 sequence with A251L, R262A
B5: wildtype Ku (KuWT), Mycobacterium tuberculosis (natural protein)
chain: T1 sequence with A251L
modifications: biotinylated at multiple sites with NHS-LC-Biotin for BLI only (sites listed in Supplementary Table S3)
notes: The His tag is TEV-cleavable; Homodimer by SEC-MALS
B6: Ku D247A (M. tuberculosis) (natural protein)
chain: T1 sequence with D247A, A251L
modifications: biotinylated with NHS-LC-Biotin for BLI only
B7: Mycobacterium tuberculosis Ku S258A (natural protein)
chain: T1 sequence with A251L, S258A
B8: Ku D250A (M. tuberculosis) (natural protein)
chain: T1 sequence with D250A, A251L
modifications: biotinylated with NHS-LC-Biotin for BLI only
B9: Ku S258A (M. tuberculosis) (natural protein)
chain: T1 sequence with A251L, S258A
modifications: biotinylated with NHS-LC-Biotin for BLI only
B10: Ku L251A (M. tuberculosis) (natural protein)
chain: T1 sequence
modifications: biotinylated with NHS-LC-Biotin for BLI only
B11: Ku R262A (M. tuberculosis) (natural protein)
chain: T1 sequence with A251L, R262A
modifications: biotinylated with NHS-LC-Biotin for BLI only
B12: 40 bp dsDNA (dsDNA)
DNA 1: CAGGGTAAGTGTGGAGGTGTAGGGAAGGGAATGTTGTCTG
DNA 2: CAGACAACATTCCCTTCCCTACACCTCCACACTTACCCTG

Experiments:
[1] = target: wildtype Ku (KuWT), Mycobacterium tuberculosis (M. tuberculosis) (UniProt P9WKD9); experiment: BLI; Octet RED96, 37°C, 1000 rpm; biotinylated Ku (25 ug/ml) loaded on streptavidin biosensors; LigD, LIG or POL as analyte (12.5 ug/ml), 300 s association, 300 s dissociation; 1x kinetics buffer (0.1% BSA, 0.02% Tween-20, 0.05% sodium azide in PBS); grouped global fit
[2] = target: Mycobacterium tuberculosis Kumin (extended C-terminus removed) (M. tuberculosis) (UniProt P9WKD9); experiment: BLI; biotinylated Ku protein (25 ug/ml) loaded on streptavidin biosensors as ligand; 12.5 ug/ml LIG or POL as analyte; 37 C, 1000 rpm; 1x kinetics buffer (0.1% BSA, 0.02% Tween-20, 0.05% sodium azide in PBS); association 300 s, dissociation 300 s; grouped global fit; n = 4 technical replicates
[3] = target: Mycobacterium tuberculosis Kucore (entire C-terminus removed) (M. tuberculosis) (UniProt P9WKD9); experiment: as above
[4] = target: the molecule itself; experiment: SEC-MALS; 50 uM protein; 50 mM HEPES pH 8.0, 1 mM EDTA, 200 mM NaCl; Superdex 200 Increase 10/300 GL
[5] = target: T6, LigD (wildtype), Mycobacterium tuberculosis (M. tuberculosis, UniProt P9WNV3 1-759); experiment: BLI; Octet RED96, 37°C, 1000 rpm; biotinylated Ku (25 ug/ml) loaded on streptavidin biosensors; LigD, LIG or POL as analyte (12.5 ug/ml), 300 s association, 300 s dissociation; 1x kinetics buffer (0.1% BSA, 0.02% Tween-20, 0.05% sodium azide in PBS); grouped global fit; conditions: both partners purified
T6 construct: The His tag is TEV-cleavable; also called wildtype LigD

[6] = target: the molecule itself; experiment: SEC-MALS; 50 uM protein in 50 mM HEPES pH 8.0, 1 mM EDTA, 200 mM NaCl; Superdex 200 Increase 10/300 GL; MiniDAWN and Optilab
Ku L251A = target: T1, Ku L251A; experiment: EMSA; 5 mM Mg2+; conditions: protein: recombinant; tags: His (Ni-NTA purified; pMCSG7); chain copies: 2; label: 5' 6-FAM on strand 1; blunt
Ku D250A = target: T2, Ku D250A; experiment: EMSA; 5 mM Mg2+; conditions: protein: recombinant; tags: His (Ni-NTA purified; pMCSG7); chain copies: 2; label: 5' 6-FAM on strand 1; blunt
Ku R262A = target: T3, Ku R262A; experiment: EMSA; 5 mM Mg2+; conditions: protein: recombinant; tags: His (Ni-NTA purified; pMCSG7); chain copies: 2; label: 5' 6-FAM on strand 1; blunt
Ku S258A = target: T4, Ku S258A; experiment: EMSA; 5 mM Mg2+; conditions: protein: recombinant; tags: His (Ni-NTA purified; pMCSG7); chain copies: 2; label: 5' 6-FAM on strand 1; blunt
Ku D247A = target: T5, Ku D247A; experiment: EMSA; 5 mM Mg2+; conditions: protein: recombinant; tags: His (Ni-NTA purified; pMCSG7); chain copies: 2; label: 5' 6-FAM on strand 1; blunt

T6 sequence (P9WNV3 whole entry): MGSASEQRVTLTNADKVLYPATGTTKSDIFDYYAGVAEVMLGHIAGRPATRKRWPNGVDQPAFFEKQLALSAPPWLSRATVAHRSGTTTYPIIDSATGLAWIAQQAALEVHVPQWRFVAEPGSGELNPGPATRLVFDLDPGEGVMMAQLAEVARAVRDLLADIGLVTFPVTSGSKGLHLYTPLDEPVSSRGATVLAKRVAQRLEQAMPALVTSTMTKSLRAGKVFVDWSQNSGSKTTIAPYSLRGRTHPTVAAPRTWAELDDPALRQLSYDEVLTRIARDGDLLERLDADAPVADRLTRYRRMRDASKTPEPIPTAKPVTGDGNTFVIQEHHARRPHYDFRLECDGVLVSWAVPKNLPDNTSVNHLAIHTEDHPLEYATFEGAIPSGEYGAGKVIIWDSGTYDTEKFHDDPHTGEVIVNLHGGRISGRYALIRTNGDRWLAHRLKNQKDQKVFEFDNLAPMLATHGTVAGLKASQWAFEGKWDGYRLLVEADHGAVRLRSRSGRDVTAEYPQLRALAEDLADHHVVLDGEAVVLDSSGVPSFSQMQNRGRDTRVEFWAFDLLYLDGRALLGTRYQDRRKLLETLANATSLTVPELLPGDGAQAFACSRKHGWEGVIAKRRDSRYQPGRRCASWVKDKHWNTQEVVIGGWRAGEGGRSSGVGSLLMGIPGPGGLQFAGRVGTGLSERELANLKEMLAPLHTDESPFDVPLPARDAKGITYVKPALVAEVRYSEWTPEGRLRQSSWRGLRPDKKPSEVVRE

| Molecule | stoichiometry N [4] | Kd [5] [nM] | stoichiometry N [6] | further results |
| --- | --- | --- | --- | --- |
| LigD ligase domain (LIG), Mycobacterium tuberculosis (domain or fragment) | – | – | – | Kd [1]: 81.4 nM |
| polymerase domain of Mycobacterium tuberculosis LigD (domain or fragment) | – | – | – | Kd [2]: 774 nM; Kd [3]: 291 nM |
| LigD polymerase domain (POL), Mycobacterium tuberculosis (domain or fragment) | – | – | – | Kd [1]: 52.7 nM |
| ligase domain of Mycobacterium tuberculosis LigD (domain or fragment) | – | – | – | Kd [2]: 571 nM; Kd [3]: 274 nM |
| B1 | 2 | – | – | – |
| B2 | 2 | – | – | – |
| B3 | 2 | – | – | – |
| B4 | 2 | – | – | – |
| B5 | – | 196 | 2 | – |
| B6 | – | 189 | 2 | – |
| B7 | 2 | – | – | – |
| B8 | – | 219 | 2 | – |
| B9 | – | 258 | 2 | – |
| B10 | – | 134 | 2 | – |
| B11 | – | 125 | 2 | – |
| B12 | – | – | – | Kd (Ku L251A): 1300 ± 190 nM; Kd (Ku D250A): 140 ± 10 nM; Kd (Ku R262A): 140 ± 10 nM; Kd (Ku S258A): 1340 ± 290 nM; Kd (Ku D247A): 160 ± 10 nM |
